The subject of one series is biotinyl-Phe-oxazolone. Nature of the series: self-aminoacylation, catalytic enhancement (BFO) (fold over background); higher = more active; k-Seq, kA / k0A0; sequences stand for … in GGGAAUGGAUCCACAUCUACGAAUUC…UUCACUGCAGACUUGACGAAGCUG
In a few lines: (§1)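 Each biotinyl-aminoacyl-oxazolone, at 2–1250 μM, was incubated with mutagenized RNA pools (0.43 μM) carrying a 21-nt variable region. The 50 μL reactions contained HEPES/NaCl/KCl/MgCl2/CaCl2 buffer with 5% acetonitrile at pH 6.9–7.0 and ran for 90 minutes at room temperature. After streptavidin capture, RNA was measured by qPCR in triplicate and by Illumina sequencing, and catalytic enhancement was calculated as median kA over the uncatalyzed rate from a pseudo-first-order fit of per-sequence fraction reacted.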

The subject of another series is biotinyl-Ile-oxazolone. The experiment in a line: self-aminoacylation, catalytic enhancement (BIO) (fold over background); higher = more active; k-Seq, kA / k0A0; sequences stand for … in GGGAAUGGAUCCACAUCUACGAAUUC…UUCACUGCAGACUUGACGAAGCUG
In short, it runs like this:
as §1

The subject of the next series is biotinyl-Met-oxazolone. The experiment in a line: self-aminoacylation, catalytic enhancement (BMO) (fold over background); higher = more active; k-Seq, kA / k0A0; sequences stand for … in GGGAAUGGAUCCACAUCUACGAAUUC…UUCACUGCAGACUUGACGAAGCUG
In a few lines:
as §1

A further series concerns biotinyl-Val-oxazolone. The experiment in a line: self-aminoacylation, catalytic enhancement (BVO) (fold over background); higher = more active; k-Seq, kA / k0A0; sequences stand for … in GGGAAUGGAUCCACAUCUACGAAUUC…UUCACUGCAGACUUGACGAAGCUG
In short, it runs like this:
as §1

A further series deals with biotinyl-Leu-oxazolone. The experiment in a line: self-aminoacylation, catalytic enhancement (BLO) (fold over background); higher = more active; k-Seq, kA / k0A0; sequences stand for … in GGGAAUGGAUCCACAUCUACGAAUUC…UUCACUGCAGACUUGACGAAGCUG
In a few lines:
as §1

Another series has as its system biotinyl-Trp-oxazolone. Nature of the series: self-aminoacylation, catalytic enhancement (BWO) (fold over background); higher = more active; k-Seq, kA / k0A0; sequences stand for … in GGGAAUGGAUCCACAUCUACGAAUUC…UUCACUGCAGACUUGACGAAGCUG
In a few lines: as §1

Variants at the floor of the assay were thinned out.

As for “UAGUUUGCUGAUAGUCGCAAG [Fam3.1 aminoacylation ribozyme variant]”, the self-aminoacylation in the series with biotinyl-Phe-oxazolone amounted to 2.35; in the series with biotinyl-Ile-oxazolone it was 1.61; in the series with biotinyl-Met-oxazolone, 0.993; with biotinyl-Val-oxazolone, 1.47; in the series with biotinyl-Leu-oxazolone, 1.08; in the series on biotinyl-Trp-oxazolone it was 1.61.
For “AAGUUUGCUAAUUGUCUCAAG [Fam3.1 aminoacylation ribozyme variant]”, the self-aminoacylation with biotinyl-Phe-oxazolone turned out to be 1.05; in the series with biotinyl-Ile-oxazolone it was 0.937; in the series with biotinyl-Met-oxazolone, 0.943; with biotinyl-Val-oxazolone it was 0.881; in the series with biotinyl-Leu-oxazolone, 0.852; in the series on biotinyl-Trp-oxazolone, 0.743.
For the sequence “AUUACCCUGGCCAUCGAAUGA [Fam2.1 aminoacylation ribozyme variant]”, the self-aminoacylation is 1.84 in the series on biotinyl-Phe-oxazolone; 1 in the series on biotinyl-Ile-oxazolone; 0.928 with biotinyl-Met-oxazolone; 1.31 with biotinyl-Val-oxazolone; 1.4 in the series on biotinyl-Leu-oxazolone; 0.331 with biotinyl-Trp-oxazolone.
Consider “AAGUUAGCUAAUAAUCGCAAG [Fam3.1 aminoacylation ribozyme variant]”, for which the self-aminoacylation with biotinyl-Phe-oxazolone was found to be 2; in the series on biotinyl-Ile-oxazolone, 1.77; with biotinyl-Met-oxazolone, 1.3; in the series on biotinyl-Val-oxazolone it was 1.26; in the series on biotinyl-Leu-oxazolone, 1.38; with biotinyl-Trp-oxazolone, 1.12.
“AAGGUUGCUAAUAGGCGCAAG [Fam3.1 aminoacylation ribozyme variant]”: the self-aminoacylation with biotinyl-Phe-oxazolone amounted to 1.11; with biotinyl-Ile-oxazolone it was 1.19; with biotinyl-Met-oxazolone, 0.729; in the series with biotinyl-Val-oxazolone, 0.796; in the series with biotinyl-Leu-oxazolone, 1.17; in the series with biotinyl-Trp-oxazolone, 1.17.
Regarding “AUUACCCAGGUCAUCCAGUGA [Fam2.1 aminoacylation ribozyme variant]”, the self-aminoacylation with biotinyl-Phe-oxazolone worked out at 24.2; with biotinyl-Ile-oxazolone, 3.13; with biotinyl-Met-oxazolone, 5.32; in the series with biotinyl-Val-oxazolone, 3.14; in the series on biotinyl-Leu-oxazolone, 5.76; with biotinyl-Trp-oxazolone, 6.41.
On to “UCACACUUCAAGCCAUCGGUC [Fam1B.1 aminoacylation ribozyme variant]”, for which the self-aminoacylation is 0.948 in the series with biotinyl-Phe-oxazolone; 1.01 in the series on biotinyl-Ile-oxazolone; 1.08 with biotinyl-Met-oxazolone; 1.24 with biotinyl-Val-oxazolone; 1.1 with biotinyl-Leu-oxazolone; 0.854 in the series on biotinyl-Trp-oxazolone.
For the sequence “AAGUUUGCGAAUAGUUGCAAG [Fam3.1 aminoacylation ribozyme variant]”, the self-aminoacylation turned out to be 0.975 with biotinyl-Phe-oxazolone; 0.915 with biotinyl-Ile-oxazolone; 1.2 with biotinyl-Met-oxazolone; 0.803 in the series with biotinyl-Val-oxazolone; 0.661 in the series on biotinyl-Leu-oxazolone; 1.16 in the series on biotinyl-Trp-oxazolone.
Take “CCACACUUCAUGGAAUCGGUC [Fam1B.1 aminoacylation ribozyme variant]”: the self-aminoacylation with biotinyl-Phe-oxazolone turned out to be 0.928; in the series with biotinyl-Ile-oxazolone, 0.858; in the series with biotinyl-Met-oxazolone it was 0.836; in the series with biotinyl-Val-oxazolone, 1.1; with biotinyl-Leu-oxazolone, 0.946; in the series with biotinyl-Trp-oxazolone it was 0.598.
“CUACUUCAAGCCAUCGGUCUG [Fam1A.1 aminoacylation ribozyme variant]”: the self-aminoacylation with biotinyl-Phe-oxazolone was 0.772; in the series on biotinyl-Ile-oxazolone it was 0.89; in the series on biotinyl-Met-oxazolone, 0.729; with biotinyl-Val-oxazolone, 1.04; with biotinyl-Leu-oxazolone it was 1.15; in the series on biotinyl-Trp-oxazolone it was 0.696.
Consider “AUUCAACUUGGUCAUCGGGUG [Fam2.2 aminoacylation ribozyme variant]”, for which the self-aminoacylation in the series with biotinyl-Phe-oxazolone came out at 34.1; in the series with biotinyl-Ile-oxazolone, 3.85; in the series on biotinyl-Met-oxazolone, 5.25; in the series with biotinyl-Val-oxazolone, 3.29; in the series with biotinyl-Leu-oxazolone it was 6.72; with biotinyl-Trp-oxazolone it was 4.45.
“CCCCACUUCAAGCAAUCGGGC [Fam1B.1 aminoacylation ribozyme variant]”: the self-aminoacylation with biotinyl-Phe-oxazolone came to 4.2; in the series on biotinyl-Ile-oxazolone, 2.37; in the series on biotinyl-Met-oxazolone it was 3.15; in the series on biotinyl-Val-oxazolone, 2.92; with biotinyl-Leu-oxazolone, 2.43; in the series on biotinyl-Trp-oxazolone it was 5.69.
Take “AAGUUUGCUAGCAGUCGCAAG [Fam3.1 aminoacylation ribozyme variant]”: the self-aminoacylation was 1.85 with biotinyl-Phe-oxazolone; 1.19 with biotinyl-Ile-oxazolone; 1.03 in the series on biotinyl-Met-oxazolone; 1.08 with biotinyl-Val-oxazolone; 1.04 in the series on biotinyl-Leu-oxazolone; 0.91 in the series with biotinyl-Trp-oxazolone.
Turning to “CAGUUUGCUAAUAGCCGCAAG [Fam3.1 aminoacylation ribozyme variant]”, the self-aminoacylation amounted to 1.44 in the series on biotinyl-Phe-oxazolone; 1.86 in the series on biotinyl-Ile-oxazolone; 1.26 with biotinyl-Met-oxazolone; 1.46 in the series with biotinyl-Val-oxazolone; 1.69 in the series on biotinyl-Leu-oxazolone; 1.07 in the series on biotinyl-Trp-oxazolone.
On to “UUACCUCAAACAAUCGGUCUG [Fam1A.1 aminoacylation ribozyme variant]”, for which the self-aminoacylation with biotinyl-Phe-oxazolone amounted to 3.03; in the series on biotinyl-Ile-oxazolone, 0.975; with biotinyl-Met-oxazolone, 0.97; in the series on biotinyl-Val-oxazolone, 1.01; with biotinyl-Leu-oxazolone it was 0.861; in the series on biotinyl-Trp-oxazolone it was 2.66.
For “AUUACCCUGGUCAUCUAGUGA [Fam2.1 aminoacylation ribozyme variant]”, the self-aminoacylation with biotinyl-Phe-oxazolone is 42.9; in the series with biotinyl-Ile-oxazolone, 4.51; in the series with biotinyl-Met-oxazolone, 9.61; in the series on biotinyl-Val-oxazolone it was 4.83; in the series on biotinyl-Leu-oxazolone it was 9.15; with biotinyl-Trp-oxazolone it was 11.3.
On to “AGUCACAUAGGUCAUCGGGUG [Fam2.2 aminoacylation ribozyme variant]”, for which the self-aminoacylation with biotinyl-Phe-oxazolone worked out at 63.6; with biotinyl-Ile-oxazolone, 7.04; in the series with biotinyl-Met-oxazolone, 8.54; with biotinyl-Val-oxazolone, 6.38; in the series on biotinyl-Leu-oxazolone, 10.2; in the series with biotinyl-Trp-oxazolone, 9.51.
Turning to “AAGUUUGCGAAUGGUCGCAAG [Fam3.1 aminoacylation ribozyme variant]”, the self-aminoacylation is 5.78 in the series on biotinyl-Phe-oxazolone; 0.908 in the series with biotinyl-Ile-oxazolone; 0.97 with biotinyl-Met-oxazolone; 1.11 in the series with biotinyl-Val-oxazolone; 0.728 with biotinyl-Leu-oxazolone; 1.47 in the series with biotinyl-Trp-oxazolone.
For “AAGUUCGCAAAUAGUCGCAAG [Fam3.1 aminoacylation ribozyme variant]”, the self-aminoacylation with biotinyl-Phe-oxazolone worked out at 3.4; with biotinyl-Ile-oxazolone, 1.84; in the series with biotinyl-Met-oxazolone, 2.13; in the series on biotinyl-Val-oxazolone, 1.44; in the series on biotinyl-Leu-oxazolone, 2.86; in the series with biotinyl-Trp-oxazolone, 1.42.
As to “AUUACCGUGGUAAUCGAGUGA [Fam2.1 aminoacylation ribozyme variant]”, the self-aminoacylation was 43.2 with biotinyl-Phe-oxazolone; 3.63 in the series on biotinyl-Ile-oxazolone; 8.54 with biotinyl-Met-oxazolone; 4.18 in the series with biotinyl-Val-oxazolone; 9.2 in the series on biotinyl-Leu-oxazolone; 9.95 in the series with biotinyl-Trp-oxazolone.
As to “ACACUUCAAACAAUCGGUCUG [Fam1A.1 aminoacylation ribozyme variant]”, the self-aminoacylation is 75.9 with biotinyl-Phe-oxazolone; 1.7 with biotinyl-Ile-oxazolone; 1.57 with biotinyl-Met-oxazolone; 1.43 in the series on biotinyl-Val-oxazolone; 2.16 in the series with biotinyl-Leu-oxazolone; 33.3 with biotinyl-Trp-oxazolone.
As to “AAGUUUGCUAAUAAUCGCAAG [Fam3.1 aminoacylation ribozyme variant]”, the self-aminoacylation with biotinyl-Phe-oxazolone is 1.6; with biotinyl-Ile-oxazolone it was 0.735; in the series on biotinyl-Met-oxazolone, 0.637; in the series with biotinyl-Val-oxazolone, 0.746; with biotinyl-Leu-oxazolone, 0.602; with biotinyl-Trp-oxazolone, 0.876.

These data come from the supplement of paper PMC9233669.
